Assay results as given in US9593305B2, “Differentiation of pluripotent stem cells” (Janssen Biotech, Inc., priority 2008, dated 2017).

What was measured:
Type in all cases: cell-based
[1] = system: H1 human embryonic stem cells; test: Definitive endoderm formation with TGF superfamily members, SOX17 and cell number (Example 14); settings: dose titration with Wnt3a, Compound 34, or both
Protocol: Clusters were centrifuged at low speed to collect a cell pellet and remove residual dispase. […] All human embryonic stem cell lines were maintained at passage numbers less than 50 and routinely evaluated for normal karyotype and absence of mycoplasma.
Cells were washed again three times with PBS and blocked with 4% chicken serum (Invitrogen; Cat #16110082) in PBS for 30 minutes at room temperature. […] Plates were washed once with PBS and left in 100 μl/well PBS for imaging.

[2] = system: H1 human embryonic stem cells; test: Secondary assay: compound combined with individual growth factors or small molecules, no activin A (Example 5, Table 4); settings: agent combined with 2.5 μM compound and Wnt3a, no activin A
Protocol: Clusters of H1 human embryonic stem cells were grown on reduced growth factor […]™ (Invitrogen; Cat #356231)-coated tissue culture plastic. Cells were passaged using collagenase (Invitrogen; Cat #Cat #17104-019) treatment and gentle scraping, washed to remove residual enzyme, and plated with even dispersal at a ratio of 1:1 (surface area) on reduced growth factor […]™-coated 96-well black plates (Packard ViewPlates; PerkinElmer; Cat #6005182) using volumes of 100 μl/well. Cells were allowed to attach as clusters and then recover log phase growth over a 1 to 3 day period, feeding daily with MEF conditioned medium supplemented with 8 ng/ml bFGF (R&D Systems; Cat #233-FB). Plates were maintained at 37° C., 5% CO2 in a humidified box throughout the duration of assay.
Other agents tested were purchased as follows: BMP-7 (Sigma; Cat #B1434), LY294002 (Cayman; Cat 70920), PD98059, U0126, U0124 (EMD Biosciences; Cat #453710), muscimol (Tocris; Cat #0289), biuculline (Tocris; Cat #0130), sodium butyrate (Sigma; Cat #B5887). All growth factors were solubilized in PBS with 0.1% BSA (Sigma; Cat #A7888) and stored frozen at −80° C. Small molecules were solubilized in 100% DMSO (Sigma; Cat #D2650) and stored frozen at −80° C. The compounds were available as 5 mM stocks in 96-well plate format, solubilized in 100% DMSO and stored at −80° C. The compounds of the present invention were further diluted to an intermediate concentration of 0.2 mM in 50 mM HEPES (Invitrogen; Cat #15630-080), 20% DMSO and stored at 4° C. All growth factors and inhibitors were prepared in a deep well, 96-well polypropylene plate, diluted to 5× intermediate stocks in DMEM:F12 base medium at the beginning of assay and stored at 4° C.
A secondary screening assay was conducted, testing in triplicate and feeding on alternate days over the four-day assay timeframe. Assays were initiated by aspirating culture medium from each well followed by three washes in PBS to remove residual growth factors and serum. Test volumes of 80 μl per well were added back containing DMEM:F12 base medium (Invitrogen; Cat #11330-032) supplemented with 0.625% FCS (HyClone; Cat #SH30070.03), 25 ng/ml Wnt3a (R&D Systems), and 3.125 μM compound plus 20 μl 5× stock of growth factor or small molecule to yield a final concentration of 0.5% FCS, 20 ng/ml Wnt3a, and 2.5 μM compound. […] Final assay concentrations of small molecules tested were as follows: muscimol (20 μM), PD98059 (1 μM), LY294002 (2.5 μM), 00124 (1 μM), U0126 (1 μM), sodium butyrate (0.5 mM). Positive control wells (100 μl/well) contained the same base medium supplemented with 0.5% FCS, 20 ng/ml Wnt3a and 100 ng/ml activin A. Negative control wells (100 μl/well) contained the same base medium with 0.5% FCS and 20 ng/ml Wnt3a, omitting activin A.
On day 3, wells were aspirated and fed with 80 μl DMEM:F12 base medium supplemented with 2.5% FCS (HyClone) and 3.125 μM cyclic aniline-pyridinotriazine compound plus 20 μl 5× stock of growth factors or small molecules per well to yield a final concentration of 2% FCS and 2.5 μM compound (omitting Wnt3a) and as denoted on day one for all remaining growth factors or small molecules. Positive control wells (100 μl/well) contained the same base medium supplemented with 2% FCS and 100 ng/ml activin A, omitting Wnt3a. Negative control wells (100 μl/well) contained the same base medium with 2% FCS, omitting both activin A and Wnt3a.
At the conclusion of four-days of culture, assay plates were washed twice with PBS, fixed with 4% paraformaldehyde (Alexis Biochemical; Cat #ALX-350-011) at room temperature for 20 minutes, then washed three times with PBS and permeabilized with 0.5% Triton X-100 (Sigma; Cat #T8760-2) for 20 minutes at room temperature. Cells were washed again three times with PBS and blocked with 4% chicken serum (Invitrogen; Cat #16110082) in PBS for 30 minutes at room temperature.

[3] = system: H1 human embryonic stem cells; test: Definitive endoderm formation with GDF family members, SOX17 and cell number (Example 13); settings: for SOX17 expression, GDF growth factor substituting for activin A: 100 ng/ml GDF, alone or with Wnt3a, Compound 34 or Compound 56, four days
Protocol: Stock cultures of human embryonic stem cells (H1 human embryonic stem cell line) were maintained in an undifferentiated, pluripotent state on reduced growth factor […]™ (BD Biosciences; Cat #356231)-coated dishes in MEF conditioned medium with passage on average every four days. Passage was performed by exposing cell cultures to a solution of 1 mg/ml dispase (Invitrogen; Cat #17105-041) for 5 to 7 minutes at 37° C. followed by rinsing the monolayer with MEF conditioned culture medium and gentle scraping to recover cell clusters. Clusters were centrifuged at low speed to collect a cell pellet and remove residual dispase. Cell clusters were split at a 1:3 or 1:4 ratio for routine maintenance culture or a 1:1 ratio for immediate assay. All human ES cell lines were maintained at passage numbers less than 50 and routinely evaluated for normal karyotype and absence of mycoplasma.
Cell clusters were evenly resuspended in MEF conditioned medium supplemented with 8 ng/ml bFGF and seeded onto reduced growth factor […]™-coated 96-well Packard VIEWPLATES (PerkinElmer; Cat #6005182) in volumes of 0.1 ml/well. Daily feeding was conducted by aspirating spent culture medium from each well and replacing with an equal volume of fresh medium. Plates were maintained at 37° C., 5% CO2 throughout the duration of assay.
The assay was initiated by aspirating the culture medium from each well and adding back aliquots (100 μl) of test medium. Test conditions were performed in triplicate over a total four-day assay period, feeding on day 1 and day 3 by aspirating and replacing the medium from each well with fresh test medium. Various members of the GDF family of proteins were obtained for testing as follows: GDF-3 (PeproTech; Cat #120-22); GDF-5 (DePuy Orthopaedics, Inc., a Johnson & Johnson company); GDF-8 (R&D Systems; Cat #788-G8); GDF-10 (R&D Systems; Cat #1543-BP); GDF11 (PeproTech; Cat #120-11); GDF-15 (R&D Systems; Cat #957-GD). On the first day of assay, all wells received an aliquot (80 μl) of basal medium DMEM:F12 medium (Invitrogen; Cat #11330-032) supplemented with 0.5% fetal bovine serum (Hyclone; Cat #SH30070.03). A series of five different control or experimental test samples was created to evaluate activin A or various GDFs in combination with Wnt3a or Compound 34 or Compound 56. These test samples were added in 20 μl aliquots (5× concentrated) to appropriately matched assay wells to yield a final assay volume of 100 μl in each well at the final assay conditions indicated. In the first set of control samples, the following conditions were tested: 1) no additive (i.e. no supplementary growth factor or small molecule); 2) 100 ng/ml activin A (PeproTech; Cat #120-14) in combination with 20 ng/ml Wnt3a (R&D Systems; Cat #1324-WN/CF); 3) 20 ng/ml Wnt3a alone; 4) Compound 34 alone (2.5 μM) without any growth factor or small molecule; 5) Compound 56 alone (2.5 μM) without any growth factor or small molecule. In the second set of test samples, the following conditions were tested in combination with 100 ng/ml GDF3: 1) no additive (i.e. GDF-3 alone); 2) 20 ng/ml Wnt3a; 3) 20 ng/ml Wnt3a with Compound 34 (2.5 μM); 4) Compound 34 (2.5 μM); 5) Compound 56 (2.5 μM); and 6) 20 ng/ml Wnt3a with Compound 56 (2.5 μM). In the third set of test samples, each of the six conditions was combined with 100 ng/ml GDF-5. In the fourth set of test samples, each of the six conditions was combined with 100 ng/ml GDF-8. In the fifth set of test samples, each of the six conditions was combined with 100 ng/ml GDF-10. In the sixth set of test samples, each of the six conditions was combined with 100 ng/ml GDF-11. In the seventh set of test samples, each of the six conditions was combined with 100 ng/ml GDF-15. On the third day of assay, all wells for all test samples, received 100 ng/ml Activin A or 100 ng/ml respective GDF growth factor, without Wnt3a or Compound 34 or Compound 56, diluted into DMEM:F12 medium supplemented with 2% FBS. […]

## BMP-4: member of the BMP family, R&D Systems
[1]
  cell numbers at the conclusion of assay: significant effect on cell numbers
  induction of SOX17 expression compared to the Wnt3a treatment alone: weak or negligible
[2]
  effect on SOX17 expression: inhibited or had negligible effects on SOX17 expression

## TGFβ-1: TGF superfamily growth factor, R&D Systems
[1]
  induction of SOX17 expression compared to the Wnt3a treatment alone: weak or negligible

B1: Wnt3a: Wnt3a recombinant protein (R&D Systems) (protein, UniProt P56704 19-352, looked up)
Protein Wnt-3a: SYPIWWSLAVGPQYSSLGSQPILCASIPGLVPKQLRFCRNYVEIMPSVAEGIKIGIQECQHQFRGRRWNCTTVHDSLAIFGPVLDKATRESAFVHAIASAGVAFAVTRSCAEGTAAICGCSSRHQGSPGKGWKWGGCSEDIEFGGMVSREFADARENRPDARSAMNRHNNEAGRQAIASHMHLKCKCHGLSGSCEVKTCWWSQPDFRAIGDFLKDKYDSASEMVVEKHRESRGWVETLRPRYTYFKVPTERDLVYYEASPNFCEPNPETGSFGTRDRTCNVSSHGIDGCDLLCCGRGHNARAERRREKCRCVFHWCCYVSCQECTRVYDVHTCK
[3]; 20 ng/ml Wnt3a or 2.5 μM compound alone, four days
  SOX17 expression, reagent alone: failed to induce SOX17 expression

B2: BMP3: growth factor protein, R&D Systems (protein, UniProt P12645 363-472, looked up)
Bone morphogenetic protein 3: QWIEPRNCARRYLKVDFADIGWSEWIISPKSFDAYYCSGACQFPMPKSLKPSNHATIQSIVRAVGVVPGIPEPCCVPEKMSSLSILFFDENKNVVLKVYPNMTVESCACR
[1]
  induction of SOX17 expression compared to the Wnt3a treatment alone: weak or negligible

B3: GDF-5: member of the GDF family of proteins (DePuy Orthopaedics) (protein, UniProt P43026 382-501, looked up)
Growth/differentiation factor …: APLATRQGKRPSKNLKARCSRKALHVNFKDMGWDDWIIAPLEYEAFHCEGLCEFPLRSHLEPTNHAVIQTLMNSMDPESTPPTCCVPTRLSPISILFIDSANNVVYKQYEDMVVESCGCR
[3]
  SOX17 expression, GDF growth factor substituting for activin A: induced weak expression of SOX17

B4: GDF11: member of the GDF family of proteins (PeproTech) (protein, UniProt O95390 299-407, looked up)
Growth/differentiation factor …: NLGLDCDEHSSESRCCRYPLTVDFEAFGWDWIIAPKRYKANYCSGQCEYMFMQKYPHTHLVQQANPRGSAGPCCTPTKMSPINMLYFNDKQQIIYGKIPGMVVDRCGCS
[3]
  SOX17 expression, GDF growth factor substituting for activin A: induced significant levels of SOX17 expression

B5: GDF15: member of the GDF family of proteins (R&D Systems) (protein, UniProt Q99988 195-308, looked up)
Growth/differentiation factor …: ARARNGDHCPLGPGRCCRLHTVRASLEDLGWADWVLSPREVQVTMCIGACPSQFRAANMHAQIKTSLHRLKPDTVPAPCCVPASYNPMVLIQKTDTGVSLQTYDDLLAKDCHCI
[3]
  SOX17 expression, GDF growth factor substituting for activin A: induced significant levels of SOX17 expression

B6: GDF-3: member of the GDF family of proteins (PeproTech) (protein, UniProt Q9NR23 251-364, looked up)
Growth/differentiation factor …: AAIPVPKLSCKNLCHRHQLFINFRDLGWHKWIIAPKGFMANYCHGECPFSLTISLNSSNYAFMQALMHAVDPEIPQAVCIPTKLSPISMLYQDNNDNVILRHYEDMVVDECGCG
[3]
  SOX17 expression, GDF growth factor substituting for activin A: induced weak expression of SOX17

B7: GDF10: member of the GDF family of proteins (R&D Systems) (protein, UniProt P55107 369-478, looked up)
Growth/differentiation factor …: QWDEPRVCSRRYLKVDFADIGWNEWIISPKSFDAYYCAGACEFPMPKIVRPSNHATIQSIVRAVGIIPGIPEPCCVPDKMNSLGVLFLDENRNVVLKVYPNMSVDTCACR
[3]
  SOX17 expression, GDF growth factor substituting for activin A: induced significant levels of SOX17 expression
